According to paper PMC2575790:

Biological target: GST–α-adaptin ear (UniProt P17427)
Assay: pull-down

Sequence of GST–α-adaptin ear (P17427 whole entry): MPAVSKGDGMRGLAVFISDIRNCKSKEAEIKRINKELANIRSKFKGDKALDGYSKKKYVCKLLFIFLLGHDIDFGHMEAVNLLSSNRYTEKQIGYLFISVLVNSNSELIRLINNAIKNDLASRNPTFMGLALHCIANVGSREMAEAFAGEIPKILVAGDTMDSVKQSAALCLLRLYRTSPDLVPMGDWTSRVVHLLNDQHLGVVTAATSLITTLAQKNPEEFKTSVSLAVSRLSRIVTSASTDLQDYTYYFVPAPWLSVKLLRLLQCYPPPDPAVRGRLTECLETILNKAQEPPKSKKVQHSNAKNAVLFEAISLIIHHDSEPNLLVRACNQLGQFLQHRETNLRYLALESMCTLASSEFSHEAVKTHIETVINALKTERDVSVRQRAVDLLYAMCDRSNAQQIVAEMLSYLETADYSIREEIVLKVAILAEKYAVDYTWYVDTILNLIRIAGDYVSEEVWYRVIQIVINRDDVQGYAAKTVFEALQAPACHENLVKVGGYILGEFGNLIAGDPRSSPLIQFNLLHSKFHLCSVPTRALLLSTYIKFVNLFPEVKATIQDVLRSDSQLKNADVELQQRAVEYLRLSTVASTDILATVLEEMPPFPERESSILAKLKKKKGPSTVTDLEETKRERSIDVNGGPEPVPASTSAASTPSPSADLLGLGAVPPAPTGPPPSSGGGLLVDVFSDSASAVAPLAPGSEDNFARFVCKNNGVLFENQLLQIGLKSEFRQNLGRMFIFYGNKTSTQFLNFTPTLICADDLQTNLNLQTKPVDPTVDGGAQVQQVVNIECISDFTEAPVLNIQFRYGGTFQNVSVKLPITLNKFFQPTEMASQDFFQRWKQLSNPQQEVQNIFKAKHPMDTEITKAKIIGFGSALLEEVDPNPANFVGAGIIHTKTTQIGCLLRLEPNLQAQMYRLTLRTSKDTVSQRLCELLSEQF
Sequence of HA–hRME-6^wt (human RME-6, full length) (natural protein) (Q14C86 whole entry): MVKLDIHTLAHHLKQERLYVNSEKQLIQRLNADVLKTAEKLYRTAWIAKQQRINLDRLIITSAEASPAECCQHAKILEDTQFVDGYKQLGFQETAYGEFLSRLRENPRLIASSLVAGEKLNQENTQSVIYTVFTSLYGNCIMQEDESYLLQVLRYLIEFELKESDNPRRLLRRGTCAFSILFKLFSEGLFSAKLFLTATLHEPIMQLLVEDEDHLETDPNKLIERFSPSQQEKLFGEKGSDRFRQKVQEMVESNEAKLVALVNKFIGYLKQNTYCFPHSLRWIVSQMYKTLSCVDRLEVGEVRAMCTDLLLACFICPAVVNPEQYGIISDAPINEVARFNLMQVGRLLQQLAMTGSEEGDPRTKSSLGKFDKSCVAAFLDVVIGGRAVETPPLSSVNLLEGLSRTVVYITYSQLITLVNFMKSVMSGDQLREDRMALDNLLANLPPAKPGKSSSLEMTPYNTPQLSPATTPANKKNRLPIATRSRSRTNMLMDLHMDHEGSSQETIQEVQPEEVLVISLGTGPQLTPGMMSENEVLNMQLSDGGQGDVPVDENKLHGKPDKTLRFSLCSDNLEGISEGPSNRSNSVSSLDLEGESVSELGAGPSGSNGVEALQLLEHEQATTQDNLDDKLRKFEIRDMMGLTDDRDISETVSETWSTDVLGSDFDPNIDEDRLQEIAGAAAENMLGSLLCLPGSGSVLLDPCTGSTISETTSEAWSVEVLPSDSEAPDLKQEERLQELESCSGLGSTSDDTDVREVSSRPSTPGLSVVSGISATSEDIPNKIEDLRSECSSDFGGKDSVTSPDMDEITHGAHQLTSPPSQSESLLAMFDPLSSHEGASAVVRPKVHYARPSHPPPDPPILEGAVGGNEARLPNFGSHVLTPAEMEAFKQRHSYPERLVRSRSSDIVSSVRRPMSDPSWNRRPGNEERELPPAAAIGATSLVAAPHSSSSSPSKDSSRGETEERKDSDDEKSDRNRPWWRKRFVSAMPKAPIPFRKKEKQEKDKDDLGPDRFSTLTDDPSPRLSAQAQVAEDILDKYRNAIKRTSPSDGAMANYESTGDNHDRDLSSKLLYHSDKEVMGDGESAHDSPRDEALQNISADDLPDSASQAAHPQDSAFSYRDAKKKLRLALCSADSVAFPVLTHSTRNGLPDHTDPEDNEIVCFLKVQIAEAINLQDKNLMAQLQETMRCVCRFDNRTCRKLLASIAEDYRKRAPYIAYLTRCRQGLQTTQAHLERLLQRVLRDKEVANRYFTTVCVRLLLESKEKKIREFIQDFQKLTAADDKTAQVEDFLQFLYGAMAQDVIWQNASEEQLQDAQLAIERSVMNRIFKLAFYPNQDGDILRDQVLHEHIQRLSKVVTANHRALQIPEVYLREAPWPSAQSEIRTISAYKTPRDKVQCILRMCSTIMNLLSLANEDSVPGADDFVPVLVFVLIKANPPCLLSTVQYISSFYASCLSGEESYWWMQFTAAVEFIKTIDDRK

Substance | fold reduction of binding against hRME-6^wt [fold] | fold reduction of binding against hRME-6 from mock-treated cytosol [fold]
HA–hRME-6^F1487A (natural protein) | 5 | –
HA–hRME-6^wt (human RME-6, full length) (natural protein) | – | > 2
